The chains are these.
B1: G013562: AAVS1 SpyCas9 guide RNA, guide sequence SEQ ID NO: 259, chr19:55115834-55115854 (nucleic acid)
guide: mA*mA*mU*rArUrArArGrGrUrGrGrUrCrCrCrArGrCrUrGrUrUrUrUrArGrAmGmCmUmAmGmAmAmAmUmAmGmCrArArGrUrUrArArArArUrArArGrGrCrUrArGrUrCrCrGrUrUrArUrCrAmAmCmUmUmGmAmAmAmAmAmGmUmGmGmCmAmCmCmGmAmGmUmCmGmGmUmGmCmU*mU*mU*mU
B2: G013563: AAVS1 SpyCas9 guide RNA, guide sequence SEQ ID NO: 260, chr19:55115835-55115855 (nucleic acid)
guide: mA*mU*mA*rUrArArGrGrUrGrGrUrCrCrCrArGrCrUrCrGrUrUrUrUrArGrAmGmCmUmAmGmAmAmAmUmAmGmCrArArGrUrUrArArArArUrArArGrGrCrUrArGrUrCrCrGrUrUrArUrCrAmAmCmUmUmGmAmAmAmAmAmGmUmGmGmCmAmCmCmGmAmGmUmCmGmGmUmGmCmU*mU*mU*mU
B3: G013564: AAVS1 SpyCas9 guide RNA, guide sequence SEQ ID NO: 261, chr19:55115836-55115856 (nucleic acid)
guide: mU*mA*mU*rArArGrGrUrGrGrUrCrCrCrArGrCrUrCrGrGrUrUrUrUrArGrAmGmCmUmAmGmAmAmAmUmAmGmCrArArGrUrUrArArArArUrArArGrGrCrUrArGrUrCrCrGrUrUrArUrCrAmAmCmUmUmGmAmAmAmAmAmGmUmGmGmCmAmCmCmGmAmGmUmCmGmGmUmGmCmU*mU*mU*mU
B4: G000562: AAVS1 SpyCas9 guide RNA, guide sequence SEQ ID NO: 251, chr19:55115695-55115715 (nucleic acid)
guide: mC*mC*mA*rArUrArUrCrArGrGrArGrArCrUrArGrGrArGrUrUrUrUrArGrAmGmCmUmAmGmAmAmAmUmAmGmCrArArGrUrUrArArArArUrArArGrGrCrUrArGrUrCrCrGrUrUrArUrCrAmAmCmUmUmGmAmAmAmAmAmGmUmGmGmCmAmCmCmGmAmGmUmCmGmGmUmGmCmU*mU*mU*mU
B5: G013584: AAVS1 SpyCas9 guide RNA, guide sequence SEQ ID NO: 264, chr19:55115949-55115969 (nucleic acid)
guide: mC*mC*mC*rUrGrGrArArGrArUrGrCrCrArUrGrArCrArGrUrUrUrUrArGrAmGmCmUmAmGmAmAmAmUmAmGmCrArArGrUrUrArArArArUrArArGrGrCrUrArGrUrCrCrGrUrUrArUrCrAmAmCmUmUmGmAmAmAmAmAmGmUmGmGmCmAmCmCmGmAmGmUmCmGmGmUmGmCmU*mU*mU*mU
B6: G013582: AAVS1 SpyCas9 guide RNA, guide sequence SEQ ID NO: 263, chr19:55115951-55115971 (nucleic acid)
guide: mC*mC*mU*rGrUrCrArUrGrGrCrArUrCrUrUrCrCrArGrGrUrUrUrUrArGrAmGmCmUmAmGmAmAmAmUmAmGmCrArArGrUrUrArArArArUrArArGrGrCrUrArGrUrCrCrGrUrUrArUrCrAmAmCmUmUmGmAmAmAmAmAmGmUmGmGmCmAmCmCmGmAmGmUmCmGmGmUmGmCmU*mU*mU*mU
B7: G013559: AAVS1 SpyCas9 guide RNA, guide sequence SEQ ID NO: 258, chr19:55115823-55115843 (nucleic acid)
guide: mC*mC*mG*rGrCrCrCrUrGrGrGrArArUrArUrArArGrGrGrUrUrUrUrArGrAmGmCmUmAmGmAmAmAmUmAmGmCrArArGrUrUrArArArArUrArArGrGrCrUrArGrUrCrCrGrUrUrArUrCrAmAmCmUmUmGmAmAmAmAmAmGmUmGmGmCmAmCmCmGmAmGmUmCmGmGmUmGmCmU*mU*mU*mU
B8: G013565: AAVS1 SpyCas9 guide RNA, guide sequence SEQ ID NO: 262, chr19:55115850-55115870 (nucleic acid)
guide: mG*mG*mA*rUrCrCrUrGrUrGrUrCrCrCrCrGrArGrCrUrGrUrUrUrUrArGrAmGmCmUmAmGmAmAmAmUmAmGmCrArArGrUrUrArArArArUrArArGrGrCrUrArGrUrCrCrGrUrUrArUrCrAmAmCmUmUmGmAmAmAmAmAmGmUmGmGmCmAmCmCmGmAmGmUmCmGmGmUmGmCmU*mU*mU*mU
B9: G013515: AAVS1 SpyCas9 guide RNA, guide sequence SEQ ID NO: 252, chr19:55115588-55115608 (nucleic acid)
guide: mC*mC*mA*rUrCrGrUrArArGrCrArArArCrCrUrUrArGrGrUrUrUrUrArGrAmGmCmUmAmGmAmAmAmUmAmGmCrArArGrUrUrArArArArUrArArGrGrCrUrArGrUrCrCrGrUrUrArUrCrAmAmCmUmUmGmAmAmAmAmAmGmUmGmGmCmAmCmCmGmAmGmUmCmGmGmUmGmCmU*mU*mU*mU
B10: G013533: AAVS1 SpyCas9 guide RNA, guide sequence SEQ ID NO: 256, chr19:55115691-55115711 (nucleic acid)
guide: mA*mG*mA*rCrCrCrArArUrArUrCrArGrGrArGrArCrUrGrUrUrUrUrArGrAmGmCmUmAmGmAmAmAmUmAmGmCrArArGrUrUrArArArArUrArArGrGrCrUrArGrUrCrCrGrUrUrArUrCrAmAmCmUmUmGmAmAmAmAmAmGmUmGmGmCmAmCmCmGmAmGmUmCmGmGmUmGmCmU*mU*mU*mU
B11: G013519: AAVS1 SpyCas9 guide RNA, guide sequence SEQ ID NO: 253, chr19:55115616-55115636 (nucleic acid)
guide: mG*mC*mA*rArGrGrArGrArGrArGrArUrGrGrCrUrCrCrGrUrUrUrUrArGrAmGmCmUmAmGmAmAmAmUmAmGmCrArArGrUrUrArArArArUrArArGrGrCrUrArGrUrCrCrGrUrUrArUrCrAmAmCmUmUmGmAmAmAmAmAmGmUmGmGmCmAmCmCmGmAmGmUmCmGmGmUmGmCmU*mU*mU*mU
B12: G013520: AAVS1 SpyCas9 guide RNA, guide sequence SEQ ID NO: 254, chr19:55115623-55115643 (nucleic acid)
guide: mG*mA*mG*rArGrArUrGrGrCrUrCrCrArGrGrArArArUrGrUrUrUrUrArGrAmGmCmUmAmGmAmAmAmUmAmGmCrArArGrUrUrArArArArUrArArGrGrCrUrArGrUrCrCrGrUrUrArUrCrAmAmCmUmUmGmAmAmAmAmAmGmUmGmGmCmAmCmCmGmAmGmUmCmGmGmUmGmCmU*mU*mU*mU

Strand notation (5' to 3'): a small letter for the sugar, then the base; units joined by * are phosphorothioate-linked, units joined directly phosphodiester-linked; [ ] holds rarer units or linkages, { } end groups; capitals alone tell only the bases. m = 2'-O-methyl; r = 2'-OH (RNA)

The test system of one data set is AAVS1. The experiment in a line: GFP insertion at AAVS1 in T cells with SpyCas9 RNP and gapped AAV templates, flow cytometry (Example 6). The format is cell-based, human. As to conditions: Donor 1; Template A; day 7 post-editing. As for the experimental part: AAVS1 guide RNAs were designed and screened to identify insertion SpyCas9 guides using a series of gapped AAV GFP templates (A, B, C, D, OG) each designed for a subset of the guide RNAs. Insertion efficacy in T cells was examined by assessing GFP expression by flow cytometry. The percentage of T cells positive for green fluorescent protein (“% GFP+”) was assayed by flow cytometry, following AAVS1 editing by mRNA and AAV delivery.
Healthy human donor apheresis was obtained commercially (Hemacare) from two donors (#110042863 and #110040377) and cells were washed and resuspended in MACS Buffer containing 2 mM EDTA and 0.5% Fetal Bovine Serum (FBS) in PBS. Cells were washed twice by centrifugation followed by CD3 negative selection using Easy Sep Human T Cell Isolation Kit (Stemcell, Cat. 100-0695) and separated using Easy Sep Magnets (Stemcell, Cat.18000). T cells were aliquoted and cryopreserved for future use in Cryostor® CS10 (StemCell Technologies Cat. 07930).
AAVS1 guide RNAs were assessed for insertion efficacy in T cells by assessing GFP expression by flow cytometry. The percentage of T cells positive for green fluorescent protein (“% GFP+”) was assayed by flow cytometry, following AAVS1 editing by mRNA and AAV delivery.
AAVS1 targeting sgRNAs corresponding to the flanking homology regions of Gap Templates A, B, C, D, & OG (SEQ ID NOs: 299-303) were removed from their storage plates and denatured for 2 minutes at 95° C. before cooling at room temperature for 10 minutes. RNP mixture of 20 μM sgRNA and 10 μM Cas9-NLS protein (SEQ ID NO: 296) was prepared and incubated at 25° C. for 10 minutes. 2.5 μL of RNP mixture was combined with 250,000 cells in […] P3 electroporation Buffer (Lonza). 22 μL of RNP/cell mix was transferred to the corresponding wells of a Lonza shuttle 96-well electroporation plate. Cells were electroporated in duplicate with the manufacturer's pulse code. T cell media described above without any cytokines was added to the cells immediately post electroporation. T cells were rested for 10 minutes at 37° C. Gap Template AAVs were prepared in 48 well plates (Corning, Cat.353078)) with T cell media described above containing 2× cytokines, 400 U/mL recombinant human interleukin-2 (Peprotech, Cat. 200-02), 10 ng/ml recombinant human interleukin 7 (Peprotech, Cat. 200-07), and 10 ng/ml recombinant human interleukin 15 (Peprotech, Cat. 200-15) cytokines. The multiplicity of infection (MOI) of AAVs was 3×10^^5. AAVs were added to the T cells within 15 minutes post electroporation and incubated for 48 hours at 37° C. AAV-6 vectors encoded AAVS1 Template A, B, C, D or OG. Two days post-electroporation, cells were split 1:2 in 48 well plates replenished with T cell media with 1× cytokines as described above. sgRNAs were tested each with AAV constructs and gapped template.
On day 7 post-editing, cells were phenotyped by flow cytometry to determine GFP expression to confirm integration of AAV at their GAP template site. Briefly, T cells were washed in FACS buffer containing 2 mM EDTA (Invitrogen, Cat.15575020) and 1% FBS in PBS followed by re-suspending in FACS buffer containing 1:10,000 dilution of DAPI (Biolegend, Cat.422801) nuclear stain. Cells were then processed on a Cytoflex flow cytometer (Beckman Coulter) and analyzed using the FlowJo software package. T cells were gated based on size, shape, viability, and GFP expression. Values that were not determined by the flow cytometer were denoted as “ND”. Table 18 and FIGS. 8A-8B show mean percentage of T cells positive for GFP expression.
As for B1, the “Mean percentage of T cells positive for GFP expression” value (from here on “Mean percentage of T cells positive”) came to 65.75%.
Still for that read-out and setting: the result for B2 reads 73.15%.
The same measure, in the same setting: as for B3, the figure is 65.95%; as for B4, 30.60%; as for B5, 69.15%.
Consider B6, for which the “Mean percentage of T cells positive” value stood at 66.30%.

Still in this data set, the particulars now being: Donor 1; Template B; day 7 post-editing.
Consider B1, for which the “Mean percentage of T cells positive” value was 63.60%.
For the molecule B2, the “Mean percentage of T cells positive” value came out at 69.15%.
Take B3: the “Mean percentage of T cells positive” value is on record as 61.50%.
With B4, the “Mean percentage of T cells positive” value was 34.00%.
The same measure, in the same setting: as for B7, the figure is 65.55%.
On the same count and under the same terms, as for B8, the figure is 63.50%.

Still in this data set, the particulars now being: Donor 1; Template C; day 7 post-editing.
In the case of B9, the “Mean percentage of T cells positive” value was 61.15%.
In the case of B4, the “Mean percentage of T cells positive” value is given as 57.95%.
Same read-out and setting: as for B10, the figure is 65.65%.

Still in this data set, the particulars now being: Donor 1; Template D; day 7 post-editing.
For the molecule B11, the “Mean percentage of T cells positive” value is recorded as 73.35%.
As to B12, the “Mean percentage of T cells positive” value amounted to 71.80%.
The same measure, in the same setting: the result for B4 reads 29.65%.

The same data set, now with this note: Donor 1; Template OG; day 7 post-editing.
In the case of B4, the “Mean percentage of T cells positive” value is recorded as 41.75%.

The data set is the same for the next values; noted with them: Donor 2; Template A; day 7 post-editing.
With B1, the “Mean percentage of T cells positive” value is on record as 62.35%.
Still for that read-out and setting: the result for B2 reads 69.40%; that for B3, 61.20%.
For the molecule B4, the “Mean percentage of T cells positive” value turned out to be 41.20%.
For the molecule B5, the “Mean percentage of T cells positive” value amounted to 62.95%.
The same measure, in the same setting: as for B6, the figure is 61.00%.

Still in this data set, the particulars now being: Donor 2; Template B; day 7 post-editing.
For the molecule B1, the “Mean percentage of T cells positive” value was 65.40%.
On the same count and under the same terms, the result for B2 reads 71.35%; that for B3, 63.45%; that for B4, 32.75%.
Turning to B7, the “Mean percentage of T cells positive” value was 64.05%.
The same measure, in the same setting: as for B8, the figure is 65.00%.

The same data set, now with this note: Donor 2; Template C; day 7 post-editing.
Turning to B9, the “Mean percentage of T cells positive” value was determined as 60.95%.
Same read-out and setting: as for B4, the figure is 59.10%; as for B10, 65.15%.

Staying with this data set, now noted: Donor 2; Template D; day 7 post-editing.
On to B11, for which the “Mean percentage of T cells positive” value amounted to 72.10%.
Consider B12, for which the “Mean percentage of T cells positive” value was 72.20%.
The same measure, in the same setting: as for B4, the figure is 27.50%.

The data set is the same for the next values; noted with them: Donor 2; Template OG; day 7 post-editing.
For B4, the “Mean percentage of T cells positive” value is 37.80%.
